The results in this text go back to patent publication US20240102992A1.

The test concerns the target canine CD20 with C-terminal FLAG tag, expressed on A20/cCD20/luc or EL-4/cCD20/luc cells (dog) (UniProt Q3C2E2). As to the kind of experiment: cell-based or functional assay.
Chain of UniProt Q3C2E2 (Q3C2E2 other isoform, or with tags, fused parts or gaps): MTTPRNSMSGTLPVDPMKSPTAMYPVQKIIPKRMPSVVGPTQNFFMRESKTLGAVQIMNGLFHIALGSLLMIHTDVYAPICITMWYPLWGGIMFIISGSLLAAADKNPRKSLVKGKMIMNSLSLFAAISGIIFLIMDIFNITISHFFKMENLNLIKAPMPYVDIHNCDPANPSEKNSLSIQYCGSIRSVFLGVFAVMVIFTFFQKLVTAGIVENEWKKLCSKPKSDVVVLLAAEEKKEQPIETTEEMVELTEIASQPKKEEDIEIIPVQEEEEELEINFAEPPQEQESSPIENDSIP

As to “Dog IgG antibody (Jackson ImmunoResearch Laboratories, Inc.)”, the cell-mediated cytotoxicity activity (lysis rate); targets A20/cCD20/luc and EL-4/cCD20/luc, effectors NK-92/cCD16γ, E/T 10:1 is less than 25%.
